Data: the RNAGym collection of RNA variant scans (doi:10.1021/acssynbio.7b00057)

B1: Pistol ribozyme (parent)
chain: GGGUCGUUGUUCCAUAAUCGCGUGGAUAUGGCACGCAAGUUUCUACCGGGCACCGUAAAUGUCCGACUGGAGCCGUUCGGGCGGCUAUAAACAGACCUCAGGCCCGAAGCGUGGCGGCACCUGCCGCCGGUGGUAAAAAAGAUCGGAAGAGCACACGUCU

Variants of: B1
Experiment: aptazyme ON/OFF ratio, guanine; higher = stronger switching; co-transcriptional cleavage with and without guanine

| Variant | aptazyme ON/OFF ratio |
| --- | --- |
| G9U U11G C12U C13A | 1.43 |
| G9U U11G C12U C13U | 1.29 |
| G9U U11G C12U C13G | 1.43 |
| G9U C12A C13A | 1.63 |
| G9U C12A C13U | 1.1 |
| G9U C12A C13G | 1.45 |
| G9U U10C U11A C12G C13U | 1.27 |
| G9U U10C U11A C12G C13G | 1.43 |
| G9U U10C U11A C12G C13A | 1.48 |
| G9C U11C C12G C13A | 1.13 |
| G9C U11C C12G C13U | 1.19 |
| G9C U11C C12G C13G | 1.09 |
| G9U U10C U11G C12G C13U | 1.12 |
| G9U U10C U11G C12G C13G | 1.24 |
| G9U U10C U11G C12G C13A | 1.17 |
| G9C U11G C12G C13G | 1.07 |
| G9C U11G C12G C13A | 1.24 |
| G9C U11G C12G C13U | 1.05 |
| G9C U11C | 1.18 |
| G9C U11G | 2.2 |
| G9C U11A | 1.78 |
| G9C U11A C12A | 1.34 |
| G9C U11A C12U | 1.53 |
| G9C U11A C12G | 1.47 |

| Variant | aptazyme ON/OFF ratio |
| --- | --- |
| G9C U10G U11G C12A C13U | 1.11 |
| G9C U10G U11G C12A C13A | 1.11 |
| G9C U10G U11G C12A C13G | 1.12 |
| G9U U10A U11C C12A | 1.72 |
| G9U U10A U11C C12U | 1.79 |
| G9U U10A U11C C12G | 1.57 |
| G9U U10A | 3.18 |
| G9U U10C | 4.48 |
| G9U U10G | 4.12 |
| G9U U10C U11C C12U C13U | 1.18 |
| G9U U10C U11C C12U C13G | 1.09 |
| G9U U10C U11C C12U C13A | 1.11 |
| U10A | 1.15 |
| G9C U11A C12U C13A | 1.27 |
| G9C U11A C12U C13G | 1.17 |
| G9C U11A C12U C13U | 1.34 |
| G9U U11G C12A C13A | 1.31 |
| G9U U11G C12A C13U | 1.36 |
| G9U U11G C12A C13G | 1.32 |
| G9U U10A U11C C12G C13A | 1.3 |
| G9U U10A U11C C12G C13G | 0.978 |
| G9U U10A U11C C12G C13U | 1.47 |
| G9C U10G U11G C12U C13A | 1.09 |
| G9C U10G U11G C12U C13U | 1.05 |

| Variant | aptazyme ON/OFF ratio |
| --- | --- |
| G9C U10G U11G C12U C13G | 1.08 |
| G9C U11A C12G C13A | 1.2 |
| G9C U11A C12G C13U | 1.22 |
| G9C U11A C12G C13G | 1.24 |
| G9U U10C U11G C12A | 1.13 |
| G9U U10C U11G C12U | 2.12 |
| G9U U10C U11G C12G | 1.2 |
| G9U U10A U11G C12U C13A | 1.21 |
| G9U U10A U11G C12U C13G | 1.47 |
| G9U U10A U11G C12U C13U | 1.7 |
| G9U U10G C12A C13U | 1.45 |
| G9U U10G C12A C13A | 0.843 |
| G9U U10G C12A C13G | 1.17 |
| G9U U10A U11A C12G C13A | 0.999 |
| G9U U10A U11A C12G C13U | 1.64 |
| G9U U10A U11A C12G C13G | 1.51 |
| G9U U11A C13G | 1.13 |
| G9U U11A C13U | 1.44 |
| G9U U11A C13A | 1.48 |
| U10A C13G | 1.1 |
| U10A C13U | 1.08 |
| U10A C13A | 1.11 |
| G9U U10A U11G C12A C13U | 1.25 |
| G9U U10A U11G C12A C13A | 1.14 |

| Variant | aptazyme ON/OFF ratio |
| --- | --- |
| G9U U10A U11G C12A C13G | 1.37 |
| G9U U11C C12G | 1.83 |
| G9U U11C C12A | 2 |
| G9U U11C C12U | 2.4 |
| G9U U11A C12A | 2.63 |
| G9U U11A C12G | 1.55 |
| G9U U11A C12U | 1.47 |
| G9U U10C C12G | 2.12 |
| G9U U10C C12U | 1.71 |
| G9U U10C C12A | 1.77 |
| U10A C12G C13G | 1.17 |
| U10A C12G C13A | 1.4 |
| U10A C12G C13U | 1.47 |
| G9U U10G U11A C12G C13U | 1.07 |
| G9U U10G U11A C12G C13G | 1.08 |
| G9U U10G U11A C12G C13A | 1.18 |
| G9U U10C U11A C12U | 1.89 |
| G9U U10C U11A C12G | 1.76 |
| G9U U10C U11A C12A | 1.47 |
| G9U U10A C13A | 1.27 |
| G9U U10A C13G | 1.27 |
| G9U U10A C13U | 1.54 |
| G9U U10C U11A C12U C13A | 1.49 |
| G9U U10C U11A C12U C13G | 1.35 |

| Variant | aptazyme ON/OFF ratio |
| --- | --- |
| G9U U10C U11A C12U C13U | 1.54 |
| G9C U11G C13A | 1.23 |
| G9C U11G C13U | 1.31 |
| G9C U11G C13G | 1.05 |
| G9C U11C C12U C13U | 1.14 |
| G9C U11C C12U C13G | 1.01 |
| G9C U11C C12U C13A | 1.09 |
| G9U C12G C13G | 1.27 |
| G9U C12G C13A | 1.52 |
| G9U C12G C13U | 1.43 |
| G9U U10C C12U C13A | 1.69 |
| G9U U10C C12U C13U | 1.63 |
| G9U U10C C12U C13G | 1.34 |
| G9U U10G U11G C12G C13G | 1.31 |
| G9U U10G U11G C12G C13A | 1.25 |
| G9U U10G U11G C12G C13U | 1.27 |
| G9U U10C C12G C13U | 1.18 |
| G9U U10C C12G C13G | 1.32 |
| G9U U10C C12G C13A | 1.35 |
| G9U U10A C12U C13G | 1.1 |
| G9U U10A C12U C13A | 0.769 |
| G9U U10A C12U C13U | 1.06 |
| G9U U10G C12G C13A | 1.44 |
| G9U U10G C12G C13G | 1.41 |

| Variant | aptazyme ON/OFF ratio |
| --- | --- |
| G9U U10G C12G C13U | 1.23 |
| G9C U11C C13U | 1.04 |
| G9C U11C C13G | 1.03 |
| G9C U11C C13A | 1.06 |
| G9C U11A C12A C13G | 1.12 |
| G9C U11A C12A C13U | 1.3 |
| G9C U11A C12A C13A | 1.26 |
| G9U U10A U11G C12G | 2.12 |
| G9U U10A U11G C12A | 1.79 |
| G9U U10A U11G C12U | 1.27 |
| G9U U10G U11A C12U C13G | 1.24 |
| G9U U10G U11A C12U C13U | 1.85 |
| G9U U10G U11A C12U C13A | 1.21 |
| G9U U10G U11A C12U | 1.3 |
| G9U U10G U11A C12A | 1.63 |
| G9U U10G U11A C12G | 2.23 |
| G9U U11G C13G | 1.21 |
| G9U U11G C13U | 1.7 |
| G9U U11G C13A | 1.37 |
| G9U U10C U11G C12U C13G | 1.34 |
| G9U U10C U11G C12U C13U | 1.41 |
| G9U U10C U11G C12U C13A | 1.46 |
| G9U U10G C12U C13A | 1.35 |
| G9U U10G C12U C13G | 1.66 |

| Variant | aptazyme ON/OFF ratio |
| --- | --- |
| G9U U10G C12U C13U | 1.26 |
| G9U U10G U11A C12A C13U | 1.37 |
| G9U U10G U11A C12A C13A | 1.56 |
| G9U U10G U11A C12A C13G | 1.7 |
| G9U U10G U11C C12A | 1.69 |
| G9U U10G U11C C12G | 1.65 |
| G9U U10G U11C C12U | 1.08 |
| G9U U11C C12A C13A | 1.48 |
| G9U U11C C12A C13G | 1.36 |
| G9U U11C C12A C13U | 1.36 |
| G9U U10C U11A C13G | 1.09 |
| G9U U10C U11A C13A | 1.31 |
| G9U U10C U11A C13U | 1.48 |
| G9C U11A C13A | 1.19 |
| G9C U11A C13U | 1.3 |
| G9C U11A C13G | 1.04 |
| G9U U10A U11C C12A C13G | 0.991 |
| G9U U10A U11C C12A C13A | 1.06 |
| G9U U10A U11C C12A C13U | 1.41 |
| G9U U10G U11C C12A C13A | 1.34 |
| G9U U10G U11C C12A C13U | 1.23 |
| G9U U10G U11C C12A C13G | 1.29 |
| G9U U10A U11C C12U C13U | 1.5 |
